The values that follow come from PMC10850085 (Nature Communications, 2024).

B1: murine TpoR ectodomain, monomeric (TpoR_(1-479)) [modified: N-linked glycans at N117, N178, N349; tryptophan mannosylation (W465, W468); N-linked glycans at N117, N178, N349; tryptophan mannosylation (W465, W468)] [mouse] / peptide version … (parent complex)
chain 1: QDVFLLALGTEPLNCFSQTFEDLTCFWDEEEAAPSGTYQLLYAYRGEKPRACPLYSQSVPTFGTRYVCQFPAQDEVRLFFPLHLWVKNVSLNQTLIQRVLFVDSVGLPAPPRVIKARGGSQPGELQIHWEAPAPEISDFLRHELRYGPTDSSNATAPSVIQLLSTETCCPTLWMPNPVPVLDQPPCVHPTASQPHGPAPFLTVKGGSCLVSGLQAGKSYWLQLRSQPDGVSLRGSWGPWSFPVTVDLPGDAVTIGLQCFTLDLKMVTCQWQQQDRTSSQGFFRHSRTRCCPTDRDPTWEKCEEEEPRPGSQPALVSRCHFKSRNDSVIHILVEVTTAQGAVHSYLGSPFWIHQAVLLPTPSLHWREVSSGRLELEWQHQSSWAAQETCYQLRYTGEGREDWKVLEPSLGARGGTLELRPRARYSLQLRARLNGPTYQGPWSAWSPPARVSTGSE
chain 2: IEGPTLRQWLAARAGGIEGPTLRQWLAARA
B2: monomeric version of the romiplostim peptide [modified: N-terminal biotin moiety; N-terminal biotin moiety] / murine TpoR ectodomain, monomeric (TpoR_(1-479)) [modified: N-linked glycans at N117, N178, N349; tryptophan mannosylation (W465, … (parent complex)
chain 1: IEGPTLRQWLAARA
chain 2: B1 chain 1

Variants of B1 are the subject of the first assay. Put plainly: SPR; peak response of the last (highest concentration) injection over immobilised romiplostim peptide; concentration not stated for this panel; read off a plot. For orientation: In SPR one partner is held on a chip, and binding of the other changes the refractive index at the surface.
Turning to chain 1 F80A, the response is ~220 RU.

The variants in a further assay derive from B2. Put plainly: SPR; peak response of the last injection (100 nM TpoR, top concentration of a two-fold dilution series) over immobilised peptide; read off a plot.
As to chain 1 A12L, the response was ~36 RU.
